Source: paper PMC11412654, “Immunization of cows with HIV envelope trimers generates broadly neutralizing antibodies to the V2-apex from the ultralong CDRH3 repertoire” (PLOS Pathogens, 2024)

B1: Bess2 (antibody)
VH: KVQLRESGPSLVKPSQTLSLTCTVSGFSLSDKAVGWVRQAPGKALEWLGSIDTGGSTGYNPGLKSRLSITKDNSKSQVSLSVTSVTTEDSTTYYCTTVHQTTKTTKKCPDGYNYDDGCASDLGCGEADCCCYGGYDEYGGYLYSCCSYSYTYEWYVDAWGQGLLVTVSS
VL: QAVLNQPSSVSGSLGQRVSITCSGSSSNVGNGYVSWYQLIPGSAPRTLIYGDTSRASGVPDRFSGSRSGNTATLTISSLQAEDEADYFCASAEDSSSNAVFGSGTTLTVL
notes: also called Bess2 mAb; source: Expi293 or 293F cells, transfected, purified (Protein A Sepharose or Praesto AP)
B2: Bess6 (antibody)
VH: KVQLRESGPSLVKPSQTLSLICTVSGFSLSDKAVGWVRQAPGKALEWLGSIDTAGTTDHHPGLKSRLSITKDNSKNQVSLSLSSVTTEDSATYYCTTVHQPTSKQYSCPDGASVRTGGGWRWLCRGHDCCCVVEYIAYEQTPCTLTRTYEWHIDAWGQGLLVTVSS
VL: B1 VL
notes: also called Bess6 mAb; source: Expi293 or 293F cells, transfected, purified (Protein A Sepharose or Praesto AP)

Biological target: T1, BG505 gp120 (HIV-1 isolate BG505)
T1 construct: also called monomeric gp120; the monomer
Assay: ELISA; plates coated with 250 ng of BG505 gp120; monoclonal antibodies from 20 μg/mL in seven 6-fold dilutions; detected with alkaline phosphatase conjugated anti-human F(ab')2; room temperature
Conditions: both partners purified

| Binder | binding result |
| --- | --- |
| B1 | no binding (tested: 20 μg/mL (highest concentration)) |
| B2 | no binding (tested: 20 μg/mL (highest concentration)) |
